In PMC9482650, “Quantitative fragmentomics allow affinity mapping of interactomes” (Nature Communications, 2022):

T1: LIN7A, O14910
T1 sequence (O14910 103-200, limits assumed, looked up): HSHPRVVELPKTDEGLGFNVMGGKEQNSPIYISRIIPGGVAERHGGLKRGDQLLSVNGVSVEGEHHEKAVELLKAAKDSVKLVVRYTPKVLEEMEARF

T2: FRMPD1, Q5SYB0
T2 sequence (Q5SYB0 52-145, limits assumed, looked up): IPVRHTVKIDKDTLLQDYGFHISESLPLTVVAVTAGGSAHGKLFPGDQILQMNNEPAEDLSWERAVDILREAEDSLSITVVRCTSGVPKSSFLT

T3: RAPGEF6, Q8TEU7
T3 sequence (Q8TEU7 525-625, limits assumed, looked up): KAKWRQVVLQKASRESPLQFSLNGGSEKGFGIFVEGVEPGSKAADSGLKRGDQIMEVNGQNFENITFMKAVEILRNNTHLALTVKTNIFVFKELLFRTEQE

T4: RADIL, Q96JH8
T4 sequence (Q96JH8 971-1071, limits assumed, looked up): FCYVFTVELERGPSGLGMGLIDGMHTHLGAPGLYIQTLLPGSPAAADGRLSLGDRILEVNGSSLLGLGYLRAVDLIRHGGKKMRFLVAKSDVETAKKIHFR

T5: GRIP1_2, Q9Y3R0
T5 sequence (Q9Y3R0 145-248, limits assumed, looked up): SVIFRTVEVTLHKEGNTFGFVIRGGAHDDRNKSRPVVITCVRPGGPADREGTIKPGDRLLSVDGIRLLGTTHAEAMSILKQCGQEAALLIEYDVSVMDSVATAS

T6: GRIP1_5, Q9Y3R0
T6 sequence (Q9Y3R0 568-668, limits assumed, looked up): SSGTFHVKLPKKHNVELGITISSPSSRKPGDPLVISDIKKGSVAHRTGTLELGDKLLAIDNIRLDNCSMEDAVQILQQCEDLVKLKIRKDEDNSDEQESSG

T7: TJP3_3, O95049
T7 sequence (O95049 375-456, limits assumed, looked up): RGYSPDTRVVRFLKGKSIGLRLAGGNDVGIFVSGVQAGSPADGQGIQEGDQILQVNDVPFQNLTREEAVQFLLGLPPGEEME

T8: GRIP1_3, Q9Y3R0
T8 sequence (Q9Y3R0 247-346, limits assumed, looked up): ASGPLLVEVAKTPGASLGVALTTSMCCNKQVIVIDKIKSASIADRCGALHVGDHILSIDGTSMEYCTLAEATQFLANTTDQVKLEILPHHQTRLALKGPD

T9: PDZRN3_1, Q9UPQ7
T9 sequence (Q9UPQ7 244-349, limits assumed, looked up): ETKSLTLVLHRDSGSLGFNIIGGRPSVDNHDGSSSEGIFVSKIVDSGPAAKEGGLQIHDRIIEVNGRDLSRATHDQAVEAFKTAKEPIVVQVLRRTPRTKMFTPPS

T10: RHPN1, Q8TCX5
T10 sequence (Q8TCX5 508-602, limits assumed, looked up): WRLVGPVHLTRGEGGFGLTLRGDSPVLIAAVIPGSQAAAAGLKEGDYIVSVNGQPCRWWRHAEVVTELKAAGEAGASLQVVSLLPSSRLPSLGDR


What was measured:
Test in all cases: holdup assay
Parameters in all cases: key: below the threshold = too weak to quantify, mostly under pKd 3.1 to 4
Conditions in all cases: plain residues with an end cap or a label only (N-terminal biotin on a linker: ado-ado)
GORASP2, Q9H8Y8 = target: GORASP2, Q9H8Y8
LIN7A, O14910 = target: T1, LIN7A, O14910
TJP2_1, Q9UDY2 = target: TJP2_1, Q9UDY2
Sequence of TJP2_1, Q9UDY2 (Q9UDY2 24-128): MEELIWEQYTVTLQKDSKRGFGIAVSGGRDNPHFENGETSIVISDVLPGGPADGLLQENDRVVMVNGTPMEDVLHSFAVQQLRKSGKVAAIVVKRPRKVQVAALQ

GORASP1, Q9BQQ3 = target: GORASP1, Q9BQQ3
Sequence of GORASP1, Q9BQQ3 (Q9BQQ3 1-208): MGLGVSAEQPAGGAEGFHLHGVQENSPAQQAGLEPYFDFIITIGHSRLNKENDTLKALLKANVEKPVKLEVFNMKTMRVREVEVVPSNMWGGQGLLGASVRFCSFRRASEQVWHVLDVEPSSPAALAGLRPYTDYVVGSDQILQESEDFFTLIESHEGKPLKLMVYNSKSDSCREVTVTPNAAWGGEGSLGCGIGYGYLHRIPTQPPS

LNX1_3, Q8TBB1 = target: LNX1_3, Q8TBB1
Sequence of LNX1_3, Q8TBB1 (Q8TBB1 500-596): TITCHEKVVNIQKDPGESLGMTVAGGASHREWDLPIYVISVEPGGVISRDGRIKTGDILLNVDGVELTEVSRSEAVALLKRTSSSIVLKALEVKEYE

Inadl_10, Q8NI35 = target: Inadl_10, Q8NI35
Sequence of Inadl_10, Q8NI35 (Q8NI35 1673-1763): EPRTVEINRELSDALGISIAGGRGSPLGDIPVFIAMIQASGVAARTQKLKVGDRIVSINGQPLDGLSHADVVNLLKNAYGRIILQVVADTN

FRMPD1, Q5SYB0 = target: T2, FRMPD1, Q5SYB0
RAPGEF6, Q8TEU7 = target: T3, RAPGEF6, Q8TEU7
MAST2, Q6P0Q8 = target: MAST2, Q6P0Q8
Sequence of MAST2, Q6P0Q8 (Q6P0Q8 1099-1202): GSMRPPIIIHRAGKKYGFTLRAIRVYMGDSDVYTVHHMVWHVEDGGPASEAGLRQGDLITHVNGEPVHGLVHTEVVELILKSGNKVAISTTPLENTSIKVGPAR

PDZRN4_1, Q6ZMN7 = target: PDZRN4_1, Q6ZMN7
Sequence of PDZRN4_1, Q6ZMN7 (Q6ZMN7 213-318): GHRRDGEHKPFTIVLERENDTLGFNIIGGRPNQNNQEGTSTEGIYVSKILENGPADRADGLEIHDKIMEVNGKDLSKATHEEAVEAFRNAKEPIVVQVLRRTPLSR

MAGI1_1, Q96QZ7 = target: MAGI1_1, Q96QZ7
Sequence of MAGI1_1, Q96QZ7 (Q96QZ7 1-106): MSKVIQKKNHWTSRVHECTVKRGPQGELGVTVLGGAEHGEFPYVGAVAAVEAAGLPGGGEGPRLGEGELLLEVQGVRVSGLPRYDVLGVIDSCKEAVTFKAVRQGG

SCRIB_1, Q14160 = target: SCRIB_1, Q14160
Sequence of SCRIB_1, Q14160 (Q14160 718-814): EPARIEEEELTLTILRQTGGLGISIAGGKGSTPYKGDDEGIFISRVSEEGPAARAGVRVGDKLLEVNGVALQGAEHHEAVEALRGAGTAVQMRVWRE

PDLIM1, O00151 = target: PDLIM1, O00151
Sequence of PDLIM1, O00151 (O00151 1-87): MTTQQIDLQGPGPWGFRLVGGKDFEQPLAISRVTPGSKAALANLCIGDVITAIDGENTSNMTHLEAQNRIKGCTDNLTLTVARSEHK

RADIL, Q96JH8 = target: T4, RADIL, Q96JH8
GOPC, Q9HD26 = target: GOPC, Q9HD26
NHERF4_4, Q86UT5 = target: NHERF4_4, Q86UT5
Sequence of NHERF4_4, Q86UT5 (Q86UT5 464-550): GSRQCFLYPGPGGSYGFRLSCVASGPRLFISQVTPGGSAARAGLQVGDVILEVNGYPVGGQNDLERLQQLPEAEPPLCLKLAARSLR

DLG4_3, P78352 = target: DLG4_3, P78352
Sequence of DLG4_3, P78352 (P78352 306-403): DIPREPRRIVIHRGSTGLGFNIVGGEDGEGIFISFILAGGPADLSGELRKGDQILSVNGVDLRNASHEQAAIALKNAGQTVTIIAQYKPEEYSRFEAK

NHERF4_2, Q86UT5 = target: NHERF4_2, Q86UT5
Sequence of NHERF4_2, Q86UT5 (Q86UT5 220-308): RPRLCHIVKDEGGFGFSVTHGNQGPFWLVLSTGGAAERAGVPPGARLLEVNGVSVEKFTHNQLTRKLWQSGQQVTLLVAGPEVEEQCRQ

GRIP1_2, Q9Y3R0 = target: T5, GRIP1_2, Q9Y3R0
GRIP1_5, Q9Y3R0 = target: T6, GRIP1_5, Q9Y3R0
LNX1_1, Q8TBB1 = target: LNX1_1, Q8TBB1
Sequence of LNX1_1, Q8TBB1 (Q8TBB1 261-371): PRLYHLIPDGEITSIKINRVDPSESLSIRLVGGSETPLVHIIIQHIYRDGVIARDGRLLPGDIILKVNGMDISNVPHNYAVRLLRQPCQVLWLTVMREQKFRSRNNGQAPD

TJP3_3, O95049 = target: T7, TJP3_3, O95049
GRIP1_3, Q9Y3R0 = target: T8, GRIP1_3, Q9Y3R0
HTRA1, Q92743 = target: HTRA1, Q92743
Sequence of HTRA1, Q92743 (Q92743 360-477): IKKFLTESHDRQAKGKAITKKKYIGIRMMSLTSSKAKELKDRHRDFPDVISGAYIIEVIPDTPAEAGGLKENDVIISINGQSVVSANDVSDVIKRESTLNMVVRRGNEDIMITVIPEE

PDZRN3_1, Q9UPQ7 = target: T9, PDZRN3_1, Q9UPQ7
DLG5_1, Q8TDM6 = target: DLG5_1, Q8TDM6
Sequence of DLG5_1, Q8TDM6 (Q8TDM6 617-713): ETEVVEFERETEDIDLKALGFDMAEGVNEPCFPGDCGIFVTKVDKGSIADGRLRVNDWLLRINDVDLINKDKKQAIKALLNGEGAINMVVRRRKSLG

DLG1_1, Q12959 = target: DLG1_1, Q12959
RHPN1, Q8TCX5 = target: T10, RHPN1, Q8TCX5

Binder	pKd (GORASP2, Q9H8Y8)	pKd (LIN7A, O14910)	pKd (TJP2_1, Q9UDY2)	pKd (GORASP1, Q9BQQ3)	pKd (LNX1_3, Q8TBB1)	pKd (Inadl_10, Q8NI35)	pKd (FRMPD1, Q5SYB0)	pKd (RAPGEF6, Q8TEU7)	pKd (MAST2, Q6P0Q8)	pKd (PDZRN4_1, Q6ZMN7)	pKd (MAGI1_1, Q96QZ7)	pKd (SCRIB_1, Q14160)	pKd (PDLIM1, O00151)	pKd (RADIL, Q96JH8)	pKd (GOPC, Q9HD26)	pKd (NHERF4_4, Q86UT5)	pKd (DLG4_3, P78352)	pKd (NHERF4_2, Q86UT5)	pKd (GRIP1_2, Q9Y3R0)	pKd (GRIP1_5, Q9Y3R0)	other results
PGKKPEDSRV [SLCO2B1, O94956]	below the threshold	below the threshold	below the threshold	below the threshold	below the threshold	below the threshold	below the threshold	below the threshold	4.27	below the threshold	below the threshold	below the threshold	below the threshold	below the threshold	below the threshold	below the threshold	below the threshold	below the threshold	below the threshold	below the threshold	pKd (LNX1_1, Q8TBB1): below the threshold; pKd (TJP3_3, O95049): below the threshold; pKd (GRIP1_3, Q9Y3R0): below the threshold; pKd (HTRA1, Q92743): below the threshold; pKd (PDZRN3_1, Q9UPQ7): below the threshold; pKd (DLG5_1, Q8TDM6): below the threshold; pKd (DLG1_1, Q12959): 3.62; pKd (RHPN1, Q8TCX5): 3.85
SGDGKTSVWI [GJC1, P36383]	5.03	below the threshold	4.82	4.51	below the threshold	3.54	below the threshold	below the threshold	below the threshold	below the threshold	below the threshold	3.94	below the threshold	4.13	below the threshold	4.24	below the threshold	below the threshold	below the threshold	below the threshold	pKd (LNX1_1, Q8TBB1): below the threshold; pKd (TJP3_3, O95049): 4.44; pKd (GRIP1_3, Q9Y3R0): below the threshold; pKd (HTRA1, Q92743): 4.93; pKd (PDZRN3_1, Q9UPQ7): below the threshold; pKd (DLG5_1, Q8TDM6): below the threshold; pKd (DLG1_1, Q12959): below the threshold; pKd (RHPN1, Q8TCX5): below the threshold
EPAKETTTNV [SLC2A3, P11169]	3.49	below the threshold	below the threshold	below the threshold	below the threshold	below the threshold	below the threshold	below the threshold	5.06	below the threshold	below the threshold	below the threshold	below the threshold	3.62	3.73	below the threshold	3.7	3.56	below the threshold	below the threshold	pKd (LNX1_1, Q8TBB1): below the threshold; pKd (TJP3_3, O95049): below the threshold; pKd (GRIP1_3, Q9Y3R0): below the threshold; pKd (HTRA1, Q92743): 4.04; pKd (PDZRN3_1, Q9UPQ7): below the threshold; pKd (DLG5_1, Q8TDM6): below the threshold; pKd (DLG1_1, Q12959): 3.94; pKd (RHPN1, Q8TCX5): 4.35
GNDPDRGTSI [GRID2, O43424]	below the threshold	below the threshold	below the threshold	below the threshold	below the threshold	below the threshold	below the threshold	below the threshold	4.45	3.49	below the threshold	below the threshold	below the threshold	below the threshold	below the threshold	below the threshold	below the threshold	below the threshold	below the threshold	below the threshold	pKd (LNX1_1, Q8TBB1): 3.67; pKd (TJP3_3, O95049): below the threshold; pKd (GRIP1_3, Q9Y3R0): below the threshold; pKd (HTRA1, Q92743): below the threshold; pKd (PDZRN3_1, Q9UPQ7): 3.88; pKd (DLG5_1, Q8TDM6): below the threshold; pKd (DLG1_1, Q12959): below the threshold; pKd (RHPN1, Q8TCX5): below the threshold
